According to PMC4100210 (Nature communications, 2014):
Ends that are not written are not given here.

Legend:
Dvl2 full-length protein = target: T1, Dvl2 full-length protein (human, UniProt O14641 1-736); assay: pull-down
T1 sequence (looked up): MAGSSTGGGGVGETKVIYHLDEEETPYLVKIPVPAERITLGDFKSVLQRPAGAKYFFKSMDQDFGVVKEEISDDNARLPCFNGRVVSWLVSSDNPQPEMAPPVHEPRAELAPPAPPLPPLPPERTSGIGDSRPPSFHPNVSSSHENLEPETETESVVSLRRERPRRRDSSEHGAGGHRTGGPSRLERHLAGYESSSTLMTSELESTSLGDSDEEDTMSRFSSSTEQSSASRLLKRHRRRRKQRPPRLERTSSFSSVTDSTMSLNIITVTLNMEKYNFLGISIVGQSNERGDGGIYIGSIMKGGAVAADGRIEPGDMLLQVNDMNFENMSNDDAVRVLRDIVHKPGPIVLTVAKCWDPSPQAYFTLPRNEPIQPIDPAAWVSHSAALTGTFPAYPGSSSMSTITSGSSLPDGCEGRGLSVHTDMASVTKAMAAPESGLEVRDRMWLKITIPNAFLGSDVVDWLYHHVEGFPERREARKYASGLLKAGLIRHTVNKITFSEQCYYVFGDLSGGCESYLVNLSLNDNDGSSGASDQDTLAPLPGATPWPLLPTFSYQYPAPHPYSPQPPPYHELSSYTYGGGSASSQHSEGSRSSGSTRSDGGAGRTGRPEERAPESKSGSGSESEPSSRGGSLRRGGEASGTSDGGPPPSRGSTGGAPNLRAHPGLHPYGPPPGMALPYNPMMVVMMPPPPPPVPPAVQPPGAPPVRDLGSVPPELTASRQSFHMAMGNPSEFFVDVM

Dvl2 FL F277A/M300A = target: T2, Dvl2 FL F277A/M300A (human, UniProt O14641 1-736, F277A | M300A); assay: pull-down
T2 sequence (looked up): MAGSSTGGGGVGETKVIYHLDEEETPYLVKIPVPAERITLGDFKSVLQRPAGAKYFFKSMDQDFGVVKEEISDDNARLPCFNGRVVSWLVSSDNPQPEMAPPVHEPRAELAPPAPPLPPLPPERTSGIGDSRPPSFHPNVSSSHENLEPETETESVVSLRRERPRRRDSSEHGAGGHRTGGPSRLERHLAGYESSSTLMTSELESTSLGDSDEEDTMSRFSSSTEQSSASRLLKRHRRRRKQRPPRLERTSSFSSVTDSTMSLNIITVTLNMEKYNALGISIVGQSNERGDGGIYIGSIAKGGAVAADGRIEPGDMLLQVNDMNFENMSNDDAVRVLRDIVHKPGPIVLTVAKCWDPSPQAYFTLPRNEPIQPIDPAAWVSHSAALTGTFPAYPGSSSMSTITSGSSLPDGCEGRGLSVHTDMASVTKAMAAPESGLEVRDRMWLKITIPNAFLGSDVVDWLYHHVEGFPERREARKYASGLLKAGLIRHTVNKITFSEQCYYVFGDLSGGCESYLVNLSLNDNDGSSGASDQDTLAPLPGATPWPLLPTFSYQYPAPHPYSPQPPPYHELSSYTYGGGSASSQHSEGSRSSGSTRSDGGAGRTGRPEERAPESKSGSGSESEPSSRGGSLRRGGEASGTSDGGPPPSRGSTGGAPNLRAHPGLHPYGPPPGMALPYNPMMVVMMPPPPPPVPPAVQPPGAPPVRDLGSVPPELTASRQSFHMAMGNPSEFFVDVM

- binding result (Dvl2 full-length protein): binds
- binding result (Dvl2 FL F277A/M300A): binds
Binder: {GST}-GKTLQSWRRFYHRLSHSSKGETAV [GST-Fz7 fusion peptide (GST-GKTLQSWRRFYHRLSHSSKGETAV)]
